Results as given in patent US20140298547.

How the values were obtained:
Experiment in all cases: cell_activity
[1] = test system: ZFP SBS15590 (monomer of eZFN1 and eZFN8) (synthetic construct); conditions: in planta cut plus chimeric
[2] = test system: ZFP SBS18473 (monomer of eZFN8) (synthetic construct); conditions: as eZFN8 pair with SBS15590; in planta cut plus chimeric, 489/697 plants
[3] = test system: ZFP SBS8196 (monomer of eZFN1) (synthetic construct); conditions: as eZFN1 pair with SBS15590; in planta cut plus chimeric, 524/1125 plants

## ATTTTACAATCCTGTCCCTAGTGAGATGGGCGGGAGTCTTCAATCCTGTCCCTAGTGGATAAACTGCAAAAGGCGGATCA (double strand) [ELP locus eZFN1/eZFN8 binding region]
[1]; as eZFN1 pair with SBS8196, 524/1125 plants
  activity: 46.6%
[1]; as eZFN8 pair with SBS18473, 489/697 plants
  activity: 70.2%
[2]
  activity: 70.2%
[3]
  activity: 46.6%
